The text below walks through data of publication PMC9482650, “Quantitative fragmentomics allow affinity mapping of interactomes” (Nature Communications, 2022).

Holding throughout (experiment): holdup assay
What all share (parameters): key: below the threshold = too weak to quantify, mostly under pKd 3.1 to 4

Assay [1] concerns the target HTRA1, Q92743.
Assay [2] deals with T1, TIAM2, Q8IVF5.
T1 sequence (Q8IVF5 885-986, limits assumed, looked up): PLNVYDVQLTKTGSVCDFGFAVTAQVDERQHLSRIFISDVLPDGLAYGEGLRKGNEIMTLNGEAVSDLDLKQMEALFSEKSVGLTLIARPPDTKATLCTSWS

Assay [3] concerns the target T2, SHANK1, Q9Y566.
T2 sequence (Q9Y566 658-767, limits assumed, looked up): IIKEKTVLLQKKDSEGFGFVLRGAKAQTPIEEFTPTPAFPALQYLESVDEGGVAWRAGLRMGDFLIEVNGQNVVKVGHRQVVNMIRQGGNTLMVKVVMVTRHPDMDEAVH

The target of assay [4] is T3, DFNB31_1, Q9P202.
T3 sequence (Q9P202 135-233, limits assumed, looked up): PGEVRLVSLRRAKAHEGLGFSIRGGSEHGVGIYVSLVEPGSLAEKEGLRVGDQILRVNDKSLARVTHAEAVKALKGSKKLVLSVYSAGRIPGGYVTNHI

The target in assay [5] is T4, CARD11, Q9BXL7.
T4 sequence (Q9BXL7 662-765, limits assumed, looked up): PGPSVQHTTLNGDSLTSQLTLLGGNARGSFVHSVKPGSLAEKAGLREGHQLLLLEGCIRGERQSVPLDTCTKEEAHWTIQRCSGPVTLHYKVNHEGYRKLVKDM

The target of assay [6] is PDZRN4_1, Q6ZMN7.
Sequence of PDZRN4_1, Q6ZMN7 (Q6ZMN7 213-318): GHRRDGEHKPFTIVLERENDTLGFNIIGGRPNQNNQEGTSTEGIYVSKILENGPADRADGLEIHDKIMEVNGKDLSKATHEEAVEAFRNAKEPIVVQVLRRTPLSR
The target in assay [7] is NHERF4_4, Q86UT5.
Sequence of NHERF4_4, Q86UT5 (Q86UT5 464-550): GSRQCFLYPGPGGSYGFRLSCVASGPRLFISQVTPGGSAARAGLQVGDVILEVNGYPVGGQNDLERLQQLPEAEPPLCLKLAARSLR
The target in assay [8] is T5, TJP3_3, O95049.
T5 sequence (O95049 375-456, limits assumed, looked up): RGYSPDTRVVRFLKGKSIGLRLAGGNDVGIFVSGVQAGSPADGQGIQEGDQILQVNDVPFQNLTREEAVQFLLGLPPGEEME

Assay [9] has as its target T6, GRIP1_5, Q9Y3R0.
T6 sequence (Q9Y3R0 568-668, limits assumed, looked up): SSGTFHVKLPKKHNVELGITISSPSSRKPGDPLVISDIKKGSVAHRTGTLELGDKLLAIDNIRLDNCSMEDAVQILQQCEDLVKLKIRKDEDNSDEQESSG

Assay [10] concerns the target T7, RAPGEF6, Q8TEU7.
T7 sequence (Q8TEU7 525-625, limits assumed, looked up): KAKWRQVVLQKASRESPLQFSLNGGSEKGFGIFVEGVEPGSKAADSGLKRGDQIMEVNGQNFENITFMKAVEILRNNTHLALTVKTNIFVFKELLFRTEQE

Assay [11] addresses T8, DFNB31_3, Q9P202.
T8 sequence (Q9P202 811-907, limits assumed, looked up): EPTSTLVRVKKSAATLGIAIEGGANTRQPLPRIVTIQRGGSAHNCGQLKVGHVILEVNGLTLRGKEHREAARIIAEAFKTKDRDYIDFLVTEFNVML

The target of assay [12] is T9, LIN7C, Q9NUP9.
T9 sequence (Q9NUP9 88-185, limits assumed, looked up): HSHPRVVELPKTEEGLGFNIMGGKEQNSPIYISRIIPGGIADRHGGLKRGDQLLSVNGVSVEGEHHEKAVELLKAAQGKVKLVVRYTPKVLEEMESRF

Assay [13] addresses MAGI2_3, Q86UL8.
Assay [14] deals with T10, HTRA4, P83105.
T10 sequence (P83105 378-476, limits assumed, looked up): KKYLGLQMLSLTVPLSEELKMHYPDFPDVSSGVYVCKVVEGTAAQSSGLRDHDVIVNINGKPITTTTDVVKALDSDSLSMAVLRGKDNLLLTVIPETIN

Assay [15] addresses T11, DFNB31_2, Q9P202.
T11 sequence (Q9P202 274-371, limits assumed, looked up): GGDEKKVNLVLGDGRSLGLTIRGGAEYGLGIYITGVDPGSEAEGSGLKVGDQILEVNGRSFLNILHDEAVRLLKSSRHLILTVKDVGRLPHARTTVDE

In assay [16] the target is DLG1_2, Q12959.
Sequence of DLG1_2, Q12959 (Q12959 314-412): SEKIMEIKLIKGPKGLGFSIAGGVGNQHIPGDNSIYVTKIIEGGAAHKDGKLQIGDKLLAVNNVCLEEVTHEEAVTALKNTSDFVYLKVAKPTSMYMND
Assay [17] concerns the target T12, APBA1_1, Q02410.
T12 sequence (Q02410 651-752, limits assumed, looked up): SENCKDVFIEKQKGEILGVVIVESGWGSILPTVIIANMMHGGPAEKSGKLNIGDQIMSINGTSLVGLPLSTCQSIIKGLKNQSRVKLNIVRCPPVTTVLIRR

In assay [18] the target is T13, DVL3, Q92997.
T13 sequence (Q92997 244-331, limits assumed, looked up): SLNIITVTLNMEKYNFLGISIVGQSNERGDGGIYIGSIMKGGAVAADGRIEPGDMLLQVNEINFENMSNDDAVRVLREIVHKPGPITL

For assay [19], the target named is T14, FRMPD1, Q5SYB0.
T14 sequence (Q5SYB0 52-145, limits assumed, looked up): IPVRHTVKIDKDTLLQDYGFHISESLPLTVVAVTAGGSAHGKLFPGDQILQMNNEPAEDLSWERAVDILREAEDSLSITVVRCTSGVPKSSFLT

In assay [20] the target is LIMK2, P53671.
Sequence of LIMK2, P53671 (P53671 143-248): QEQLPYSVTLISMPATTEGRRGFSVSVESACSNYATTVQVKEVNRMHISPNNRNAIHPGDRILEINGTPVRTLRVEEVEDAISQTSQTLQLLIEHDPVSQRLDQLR
Assay [21] has as its target MAGI2_2, Q86UL8.
Assay [22] concerns the target T15, TX1BP3, O14907.
T15 sequence (O14907 10-122, limits assumed, looked up): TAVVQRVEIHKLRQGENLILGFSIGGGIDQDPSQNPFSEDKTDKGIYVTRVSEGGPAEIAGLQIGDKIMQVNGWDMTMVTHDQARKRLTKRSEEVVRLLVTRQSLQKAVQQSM

Setting [23] is: plain residues with an end cap or a label only (N-terminal biotin on a linker: ado-ado).
Setting [24] is: plain residues with an end cap or a label only (N-terminal biotin on a linker: ahx).

Sequence of MAGI2_2, Q86UL8 (Q86UL8 410-522): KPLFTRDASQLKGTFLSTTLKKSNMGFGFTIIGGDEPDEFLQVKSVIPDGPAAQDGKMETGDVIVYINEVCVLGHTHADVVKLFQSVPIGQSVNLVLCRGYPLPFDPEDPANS
Sequence of HTRA1, Q92743 (Q92743 360-477): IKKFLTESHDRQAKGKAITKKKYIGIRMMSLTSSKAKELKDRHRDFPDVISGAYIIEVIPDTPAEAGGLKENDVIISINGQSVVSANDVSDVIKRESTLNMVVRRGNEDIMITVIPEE
Sequence of MAGI2_3, Q86UL8 (Q86UL8 600-682): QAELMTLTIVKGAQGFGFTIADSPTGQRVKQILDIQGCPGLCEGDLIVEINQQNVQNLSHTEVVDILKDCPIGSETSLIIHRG

The term pKd denotes the Kd on a negative log10 scale, so that one unit is a factor of ten. Consider SLNANEVEWF [RNF130, Q86XS8], for which the pKd in assay [1] (setting [23]) was 4.49; in [2] (setting [23]) it was 4.16; in [3] (setting [23]), 3.82; in [4] (setting [23]) it was “below the threshold”; in [5] (setting [23]), “below the threshold”; in assay [6] (setting [23]), “below the threshold”. In addition, the pKd in [7] (setting [23]) is 4.1; in [8] (setting [23]), 3.6; in assay [9] (setting [23]), “below the threshold”; in assay [10] (setting [23]), 3.61; in assay [11] (setting [23]) it was 4.16; in assay [12] (setting [23]), 3.96. Further, the pKd in assay [13] (setting [23]) is 3.7; in [14] (setting [23]) it was 3.81; in assay [15] (setting [23]), “below the threshold”; in assay [16] (setting [23]), “below the threshold”; in [17] (setting [23]) it was 3.56; in assay [18] (setting [23]) it was 4.48. In addition, the pKd entry in [19] (setting [23]) was “below the threshold”; in assay [20] (setting [23]) it was 3.5; in assay [21] (setting [23]), “below the threshold”; in [22] (setting [23]) it was “below the threshold”.
With EKQAKGDTEF [CACYBP, Q9HB71], the negative logarithm of the Kd (pKd) result in assay [1] (setting [24]), in assay [2] (setting [24]), in [3] (setting [24]), in assay [4] (setting [24]), in assay [5] (setting [24]) and in assay [6] (setting [24]) was “below the threshold” throughout. Further, the negative logarithm of the Kd (pKd) entry in [7] (setting [24]), in assay [8] (setting [24]), in assay [9] (setting [24]), in assay [10] (setting [24]), in assay [11] (setting [24]) and in assay [12] (setting [24]) was “below the threshold” each time. Also, the pKd result in assay [13] (setting [24]), in assay [14] (setting [24]), in [15] (setting [24]), in assay [16] (setting [24]), in [17] (setting [24]) and in [18] (setting [24]) was “below the threshold” in each case. The pKd entry in [19] (setting [24]), in assay [20] (setting [24]), in assay [21] (setting [24]) and in assay [22] (setting [24]) was “below the threshold” in each case.
For TRKRSGEAAV [PFKM, P08237], the pKd entry in [1] (setting [23]), in [2] (setting [23]), in [3] (setting [23]), in assay [4] (setting [23]), in assay [5] (setting [23]) and in assay [6] (setting [23]) was “below the threshold” in each case. For the same molecule, the negative-log Kd (pKd) result in assay [7] (setting [23]), in assay [8] (setting [23]), in assay [9] (setting [23]), in assay [10] (setting [23]), in assay [11] (setting [23]) and in assay [12] (setting [23]) was “below the threshold” each time. Moreover, the negative-log Kd (pKd) entry was “below the threshold” in assay [13] (setting [23]); “below the threshold” in assay [14] (setting [23]); “below the threshold” in assay [15] (setting [23]); 3.95 in [16] (setting [23]); “below the threshold” in [17] (setting [23]); “below the threshold” in assay [18] (setting [23]). The negative logarithm of the Kd (pKd) result was “below the threshold” in [19] (setting [23]), “below the threshold” in [20] (setting [23]), 4.09 in assay [21] (setting [23]) and 4.07 in [22] (setting [23]).
